The numbers were not newly measured in PMC3784502, which cites them from elsewhere.

In general, Kd refers to a measure of binding affinity in units of concentration.

This data set addresses APC 15-aa repeat region (Homo sapiens) (UniProt P25054).
Chain of UniProt P25054 (P25054 1020-1169): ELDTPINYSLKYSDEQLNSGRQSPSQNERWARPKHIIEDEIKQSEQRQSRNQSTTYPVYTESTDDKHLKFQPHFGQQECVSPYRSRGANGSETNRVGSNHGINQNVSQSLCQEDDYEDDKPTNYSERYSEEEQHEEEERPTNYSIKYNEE

On to “β-catenin ARM repeats 5-9 (from UniProt P35222)”, for which the Kd was 273 nM.
